Assays:
[1] = target: T1, rhKeap1^R415A+Y525A+ (residue 321-609 aa) (human, UniProt Q14145 321-609, R415A | Y525A, biotinylated (site not stated)); test: BLI
[2] = target: T1, rhKeap1^R415A+Y525A+ (residue 321-609 …); test: BLI; remark: listed apart in the source

T1 sequence (Q14145 321-609 R415A/Y525A): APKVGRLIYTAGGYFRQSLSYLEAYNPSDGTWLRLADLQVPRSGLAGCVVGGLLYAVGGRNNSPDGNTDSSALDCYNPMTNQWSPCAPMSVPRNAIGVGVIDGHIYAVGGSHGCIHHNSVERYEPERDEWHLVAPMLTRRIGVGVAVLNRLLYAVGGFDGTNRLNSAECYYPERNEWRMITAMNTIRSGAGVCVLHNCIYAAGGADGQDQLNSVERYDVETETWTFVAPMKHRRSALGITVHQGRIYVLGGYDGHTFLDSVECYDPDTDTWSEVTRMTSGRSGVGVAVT

- koff [1]: 0.00262 s⁻¹
- Kd [2]: 107 nM
B1: human Nrf2 protein (natural protein)
chain: MMDLELPPPGLPSQQDMDLIDILWRQDIDLGVSREVFDFSQRRKEYELEKQKKLEKERQEQLQKEQEKAFFAQLQLDEETGEFLPIQPAQHIQSETSGSANYSQVAHIPKSDALYFDDCMQLLAQTFPFVDDNEVSSATFQSLVPDIPGHIESPVFIATNQAQSPETSVAQVAPVDLDGMQQDIEQVWEELLSIPELQCLNIENDKLVETTMVPSPEAKLTEVDNYHFYSSIPSMEKEVGNCSPHFLNAFEDSFSSILSTEDPNQLTVNSLNSDATVNTDFGDEFYSAFIAEPSISNSMPSPATLSHSLSELLNGPIDVSDLSLCKAFNQNHPESTAEFNDSDSGISLNTSPSVASPEHSVESSSYGDTLLGLSDSEVEELDSAPGSVKQNGPKTPVHSSGDMVQPLSPSQGQSTHVHDAQCENTPEKELPVSPGHRKTPFTKDKHSSRLEAHLTRDELRAKALHIPFPVEKIINLPVVDFNEMMSKEQFNEAQLALIRDIRRRGKNKVAAQNCRKRKLENIVELEQDLDHLKDEKEKLLKEKGENDKSLHLLKKQLSTLYLEVFSMLRDEDGKPYSPSEYSLQQTRDGNVFLVPKSKKPDVKKN

Source: paper PMC7972864 (2021)
